For data set [1], the target named is Lanmodulin from Hansschlegelia quercus (Hans-LanM), wild type (Hansschlegelia quercus). The data set can be described thus: SEC; analytical size-exclusion chromatography of Hans-LanM in the presence of three equivalents of La(III).
The target is the same in data set [2]. The data set can be described thus: ITC; dilutive additions of 300 uM apo protein into matched buffer (30 mM MOPS, 100 mM KCl, pH 7.0), 30 °C; Dimer Dissociation model; dimer to monomers.
Data set [3] shares this target. In words: SEC-MALS; Hans-LanM pre-incubated with 3 equiv. La(III), Nd(III) or Gd(III); 1.2-1.5 mg/mL loaded; buffer B (30 mM MOPS, 100 mM KCl, 5% glycerol, pH 7.0).
For data set [4] the target is unchanged. In words: ITC; dilutive additions of 300 uM protein with 2 equivalents of Dy(III) into matched buffer (30 mM MOPS, 100 mM KCl, pH 7.0), 30 °C; Dimer Dissociation model; dimer to monomers.
For data set [5] the target is unchanged. The data set can be described thus: ITC; dilutive additions of 150 uM or 540 uM protein with 2 equivalents of La(III) into matched buffer (30 mM MOPS, 100 mM KCl, pH 7.0), 30 °C; no change of heats seen, only an upper limit; dimer to monomers.
Data set [6] deals with the molecule itself. The data set can be described thus: SEC; analytical Superdex 75 column (24 mL); protein metalated with 3.0 equiv. La(III).
Data set [7] concerns the molecule itself. The data set can be described thus: SEC; analytical Superdex 75 column (24 mL); apo protein (590 uM, 100 uL) metalated with 3.0 equiv. Nd(III).
Data set [8] deals with the molecule itself. In words: SAXS; La(III)-bound protein from SEC-MALS fractions, 1.5 mg/mL; 30 mM MOPS, 100 mM KCl, 5% glycerol, pH 7.0, 22 C; Porod volume, OLIGOMER and CRYSOL analyses.
Data set [9] deals with the molecule itself. The data set can be described thus: SAXS; Nd(III)-bound protein from SEC-MALS fractions, 1.4 mg/mL; 30 mM MOPS, 100 mM KCl, 5% glycerol, pH 7.0, 22 C; Porod volume, OLIGOMER and CRYSOL analyses.

These results are taken from publication PMC10232371, “Enhanced rare-earth separation with a metal-sensitive lanmodulin dimer” (Nature, 2023).

On to “Lanmodulin from Hansschlegelia quercus (Hans-LanM), wild type (natural protein)”, for which the stoichiometry N in [1] and in [3] was 2 in each case. Moreover, the results for the Kd in data set [2], in [4] and in [5] were 117 µM, 60 µM and less than 0.4 µM, respectively.

B1: Hansschlegelia quercus lanmodulin (Hans-LanM), residues A24-K133 (natural protein)
chain: ASGADALKALNKDNDDSLEIAEVIHAGATTFTAINPDGDTTLESGETKGRLTEKDWARANKDGDQTLEMDEWLKILRTRFKRADANKDGKLTAAELDSKAGQGVLVMIMK
notes: lanmodulin (LanM) of Hansschlegelia quercus without its native 23-residue signal peptide; expressed with an N-terminal Met that is cleaved, so the first residue is A24; Metal-free (apo) or loaded with rare-earth(III) ions as named in each assay; expressed from pET-29b(+); also called wild-type Hans-LanM; source: E. coli, purified (SEC, dialysed against Chelex 100)
With B1, the “stoichiometry N” value in data set [6], in data set [7], in data set [8] and in data set [9] was 2 throughout.
